In IntAct's records for PubMed 26030876:

B1: Autophagy-related protein 101 (Homo sapiens), Q9BSB4 (parent)
chain: MNCRSEVLEVSVEGRQVEEAMLAVLHTVLLHRSTGKFHYKKEGTYSIGTVGTQDVDCDFIDFTYVRVSSEELDRALRKVVGEFKDALRNSGGDGLGQMSLEFYQKKKSRWPFSDECIPWEVWTVKVHVVALATEQERQICREKVGEKLCEKIINIVEVMNRHEYLPKMPTQSEVDNVFDTGLRDVQPYLYKISFQITDALGTSVTTTMRRLIKDTLAL
partner: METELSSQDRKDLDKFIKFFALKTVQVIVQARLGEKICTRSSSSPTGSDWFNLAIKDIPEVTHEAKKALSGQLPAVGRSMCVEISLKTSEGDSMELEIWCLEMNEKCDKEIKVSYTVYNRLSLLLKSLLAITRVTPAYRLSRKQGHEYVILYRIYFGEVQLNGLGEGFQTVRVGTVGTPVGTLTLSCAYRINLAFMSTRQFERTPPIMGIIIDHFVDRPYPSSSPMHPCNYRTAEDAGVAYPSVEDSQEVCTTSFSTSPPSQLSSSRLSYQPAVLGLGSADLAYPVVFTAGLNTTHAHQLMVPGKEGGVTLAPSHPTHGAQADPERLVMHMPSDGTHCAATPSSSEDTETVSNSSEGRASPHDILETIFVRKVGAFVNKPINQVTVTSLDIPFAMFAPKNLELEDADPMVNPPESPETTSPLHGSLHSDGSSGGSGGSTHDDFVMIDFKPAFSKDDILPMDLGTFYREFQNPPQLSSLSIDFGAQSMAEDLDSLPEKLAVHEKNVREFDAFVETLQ

Variants of: B1
Settings: with atg13_mouse Atg13, Q91YI1

**Q.** How did the “effect of a mutation on the interaction” value turn out when MNCRSEVLEVSVEGRQVEEAMLAVLHTVLRRRSTGKFHYKKEGTYSIGTVGTQDVDCDFIDFTYVRVSSEELDRALRKVVGEFKDALRNSGGDGLGQMSLEFYQKKKSRWPFSDECIPWEVWTVKVHVVALATEQERQICREKVGEKLCEKIINIVEVMNRHEYLPKMPTQSEVDNVFDTGLRDVQPYLYKISFQITDALGTSVTTTMRRLIKDTLAL [L30R;H31R] was run?
**A.** Its value is “disrupting interaction strength”.

**Q.** With MNCRSEVLEVSVEGRQVEEAMLAVLHTVLLHRSTGKFHYKKEGTYSIGTVGTQDVDCDFIDFRYVRVSSEELDRALRKVVGEFKDALRNSGGDGLGQMSLEFYQKKKSRWPFSDECIPWEVWTVKVHVVALATEQERQICREKVGEKLCEKIINIVEVMNRHEYLPKMPTQSEVDNVFDTGLRDVQPYLYKISFQITDALGTSVTTTMRRLIKDTLAL [T63R] as the variant, how does the “effect of a mutation on the interaction” value read?
**A.** The value was “decreasing interaction strength”.
